# Measurements from patent US20230028880A1, “CD38-BINDING AGENTS AND USES THEREOF” (Biohaven Therapeutics Ltd., priority 2019, published 2023).
# Several values for one entry are separate records, joined by “and”; a condition that tells them apart may be missing. Identical values can stand only once. *1 amine or outer side, *2 acyl side, *3 side chain or, on linkers, in order; H or OH if unused. Bridges are numbered along the chain shown (N, C = ends). Roman numbers before positions name the chains, in order. Where no end group is shown, it is not given here. [ ]: non-standard residue; d: D form. d(γGlu) = O=C(O)[C@@H](CCC(=O)[*:2])N[*:1]; Bip = N[C@@H](Cc1ccc(-c2ccccc2)cc1)C(=O)O; PEG8 = NCCOCCOCCOCCOCCOCCOCCOCCOCCC(=O)O; NMeF = CN[C@@H](Cc1ccccc1)C(=O)O; Ahp(2) = CCCCC[C@H](N)C(=O)O
# B1: A L H MeF V A P Bph V W V C (peptide)
# peptide: ALH[NMeF]VAP[Bip]VWVC
# modifications: not fully specified (N-terminus, bridges); printed as A L H MeF V A P Bph V W V C
# notes: Alanine variant at position 6
# B2: I-33 (peptide)
# peptide 1: ARXYHDGVLXXDC
# peptide 2: DCAWHLGELVWCT
# modifications: Cys2-Cys12 disulfide; N-terminus extended by PEG8-; X3 and X11 = Ahp ((S)-2-aminoheptanoic acid), X10 = Bph (4-biphenylylalanine); N-terminal -C(O)CH2- (from 2-bromoacetic acid) thioether-linked to S of Cys13; C-terminus carries PEG8 linker
# B3: A L H MeF V L P Bph V W A C (peptide)
# peptide: ALH[NMeF]VLP[Bip]VWAC
# modifications: not fully specified (N-terminus, bridges); printed as A L H MeF V L P Bph V W A C
# notes: Alanine variant at position 11
# B4: I-40 (peptide)
# peptide 1: Ac-AR[Ahp(2)]YHDGVL[Bip][Ahp(2)]DCG
# peptide 2: GDCAWHLGELVWCT-NH2
# modifications: disulfide II:3-II:13; also: C-terminal Gly of chain 1 amide-bonded to N-terminal Gly of chain 2 (one chain), thioether at chain A 13 to a chain's N-terminus
# notes: The section is headed I-40, its product is called compound 523; also called compound 523
# B5: I-28 (peptide)
# peptide 1: {‑C(O)CH2‑}-AR[Ahp(2)]YHDGVL[Bip][Ahp(2)]DC-{PEG8-d(γGlu)-d(γGlu)-D‑Glu(side chain amide of 12-aminododecanoic acid)-d(γGlu)-d(γGlu)-Gly-Gly}
# peptide 2: DCAWHLGELVWCT
# modifications: disulfide II:2-II:12; also: chain 2 joined to the end of the chain 1 linker, thioether at chain A 13 to a chain's N-terminus
# B6: I-39 (peptide)
# peptide 1: ARXYHDGVLXXDC
# peptide 2: DCAWHLGELVWCT
# modifications: Cys2-Cys12 disulfide; N-terminus extended by hydrazinecarbonyl (urea from Boc-NH-NH2 and CDI)-PEG6-; X3 and X11 = Ahp ((S)-2-aminoheptanoic acid), X10 = Bph (4-biphenylylalanine); N-terminal -C(O)CH2- (from 2-bromoacetic acid) thioether-linked to S of Cys13; C-terminus carries PEG10 linker
# B7: A L H MeF V L A Bph V W V C (peptide)
# peptide: ALH[NMeF]VLA[Bip]VWVC
# modifications: not fully specified (N-terminus, bridges); printed as A L H MeF V L A Bph V W V C
# notes: Alanine variant at position 7
# B8: A L H MeF V L P Bph V A V C (peptide)
# peptide: ALH[NMeF]VLP[Bip]VAVC
# modifications: not fully specified (N-terminus, bridges); printed as A L H MeF V L P Bph V A V C
# notes: Alanine variant at position 10
# B9: A L H MeF V L P Bph A W V C (peptide)
# peptide: ALH[NMeF]VLP[Bip]AWVC
# modifications: not fully specified (N-terminus, bridges); printed as A L H MeF V L P Bph A W V C
# notes: Alanine variant at position 9
# B10: I-27 (peptide)
# peptide 1: ARXYHDGVLXXDC
# peptide 2: DCAWHLGELVWCT
# modifications: not fully specified; Cys2-Cys12 disulfide; N-terminus extended by D-Glu(side chain amide of 12-aminododecanoic acid)-PEG6-; X3 and X11 = Ahp ((S)-2-aminoheptanoic acid), X10 = Bph (4-biphenylylalanine); N-terminal -C(O)CH2- (from 2-bromoacetic acid) thioether-linked to S of Cys13; C-terminus carries PEG10 linker
# B11: I-30 (peptide)
# peptide 1: AR[Ahp(2)]YHDGVL[Bip][Ahp(2)]DC-{4‑aminobutanoic acid}
# peptide 2: DCAWHLGELVWCT-NH2
# modifications: disulfide II:2-II:12; also: thioether at chain A 13 to a chain's N-terminus
# B12: A L H MeF A L P Bph V W V C (peptide)
# peptide: ALH[NMeF]ALP[Bip]VWVC
# modifications: not fully specified (N-terminus, bridges); printed as A L H MeF A L P Bph V W V C
# notes: Alanine variant at position 5
# How the values were obtained:
# CD38 (human) = CD38 (human) (UniProt P28907); assay: ELISA; larger values represent binding
# CD38 [1] = biological target: T1, CD38 (human, UniProt P28907 43-300, limits assumed); assay: ELISA; larger values represent binding
# T1 construct: also called cluster of differentiation 38; cyclic ADP ribose hydrolase
# [2] = biological target: CD38 on Daudi cells (ATCC CCL-213) (human) (UniProt P28907); assay: cell-based or functional assay
# CD38 [3] = biological target: T2, CD38 (human, UniProt P28907 1-300); assay: cell-based or functional assay
# [4] = biological target: CD38 on Daudi cells (human) (UniProt P28907); assay: ternary binding, flow cytometry: Daudi cells + PE human IgG1k
# CD38 [5] = biological target: T2, CD38; assay: ternary binding, flow cytometry: PE-labelled human IgG1k recruited to Daudi cells
# Description: Various technologies can be utilized to assess and/or characterize recruitment of antibodies to target cells, e.g., cancer cells. One such assay is a ternary binding assay. An exemplary protocol is described herein. Compounds were diluted in DMSO (MP 191418) to 1000× the starting concentration used in the assay into a 96 well polypropylene plate (Corning 3357). They were then serially diluted in ½ log increments to generate 8-12 concentrations in DMSO (assay dependent). These DMSO stocks were then step diluted 1/100 into PBS (VWR Cat. #20012043). Step diluted compound range was then added into the polypropylene assay plate 1/10 the volume of the assay volume. […] The cells were then added into the polypropylene plate with the step diluted compounds and incubated at 37° C. for 30 min. At the end of the incubation, the cells were centrifuged and washed 2× with How buffer containing 0.5% Tween 20 (BP337-500). Samples were analyzed on a BD FacsCelesta. Mean fluorescence was analyzed using Graphpad Prism and curves were fit using log(inhibitor) vs. response—Variable slope (four parameters).
molecule,measurement,setting,value
Ala Arg Ahp Tyr His Asp Gly Val Leu Bph Ahp Asp Cys (SEQ ID NO.1) (peptide),Binding Assay (ELISA signal),CD38 (human),1.97
Ala Leu His MePhe Val Leu Pro Bph Val Trp Val Cys (SEQ ID NO.2) (peptide),Binding Assay (ELISA signal),CD38 (human),1.69
B1,Binding Assay (ELISA signal),CD38 [1],0.09
B2,% dead cells at 10 nM,[2],23.4% and 22.3%
same,% dead cells at 30 nM,[2],28.7% and 28.8%
same,% dead cells at 100 nM,[2],32.8% and 31.3%
same,% dead cells at 300 nM,[2],31.9% and 31.6%
same,% dead cells at 1000 nM,[2],22.6% and 23.3%
same,% dead cells at 3000 nM,[2],16.6%
same,"EC50 (nM), killing of target cells",[2],11 nM
same,"EC50 (nM), ADCC reporter cells",CD38 [3],4.3 nM
same,MFI at 1 nM,[4],3470 and 3690
same,MFI at 3 nM,[4],3660 and 1850
same,MFI at 10 nM,[4],21100 and 13600
same,MFI at 30 nM,[4],23700
same,MFI at 100 nM,[4],31900 and 24200
same,MFI at 300 nM,[4],24100 and 34300
same,MFI at 1000 nM,[4],17400 and 22200
same,MFI at 3000 nM,[4],28400 and 12400
same,IC50,CD38 [5],9.3 nM
"ALHAVLP[Bip]VWVC (not fully specified (N-terminus, bridges); printed as A L H A V L P Bph V W V C, Alanine variant at position 4) [A L H A V L P Bph V W V C]",Binding Assay (ELISA signal),CD38 [1],0.1
B3,Binding Assay (ELISA signal),CD38 [1],0.41
B4,"EC50 (nM), killing of target cells",[2],1.9 nM
same,"EC50 (nM), ADCC reporter cells",CD38 [3],50 nM
same,MFI at 0.03 nM,[4],819 and 477
same,MFI at 0.1 nM,[4],956 and 1170
same,MFI at 0.3 nM,[4],1150 and 1290
same,MFI at 1 nM,[4],1100 and 966
same,MFI at 3 nM,[4],900 and 1070
same,MFI at 10 nM,[4],1950 and 1960
same,MFI at 30 nM,[4],2160 and 2640
same,MFI at 100 nM,[4],6090 and 6880
same,MFI at 300 nM,[4],7340 and 7420
same,MFI at 1000 nM,[4],7290 and 7250
same,MFI at 3000 nM,[4],7330 and 6680
same,IC50,CD38 [5],50 nM
B5,"EC50 (nM), ADCC reporter cells",CD38 [3],14 nM
B6,% dead cells at 0.03 nM,[2],11%
same,% dead cells at 0.3 nM,[2],11.9% and 12.1%
same,% dead cells at 1 nM,[2],15.7% and 16.5%
same,% dead cells at 3 nM,[2],17.7% and 15.9%
same,% dead cells at 10 nM,[2],22.4% and 21.4%
same,% dead cells at 30 nM,[2],22.7% and 22.2%
same,% dead cells at 100 nM,[2],23.4% and 25.4%
same,% dead cells at 300 nM,[2],21.3% and 21.5%
same,"EC50 (nM), ADCC reporter cells",CD38 [3],0.61 nM
same,MFI at 0.03 nM,[4],5280 and 4130
same,MFI at 0.1 nM,[4],6760 and 4610
same,MFI at 1 nM,[4],4580 and 5160
same,MFI at 3 nM,[4],6080 and 8740
same,MFI at 10 nM,[4],5300 and 7840
same,MFI at 30 nM,[4],9350 and 9460
same,MFI at 100 nM,[4],16400 and 17300
same,MFI at 300 nM,[4],12200 and 16900
same,MFI at 1000 nM,[4],9710 and 12000
same,MFI at 3000 nM,[4],10100 and 15000
same,IC50,CD38 [5],3.3 nM
B7,Binding Assay (ELISA signal),CD38 [1],0.11
B8,Binding Assay (ELISA signal),CD38 [1],0.1
B9,Binding Assay (ELISA signal),CD38 [1],0.12
"ALH[NMeF]VLPAVWVC (not fully specified; printed as A L H MeF V L P A V W V C, Alanine variant at position 8) [A L H MeF V L P A V W V C]",Binding Assay (ELISA signal),CD38 [1],0.09
B10,% dead cells at 1 nM,[2],5.6% and 5.7%
same,% dead cells at 3 nM,[2],8.2% and 7.7%
same,% dead cells at 10 nM,[2],7.9% and 8.3%
same,% dead cells at 30 nM,[2],9.4% and 10.3%
same,% dead cells at 100 nM,[2],10.3% and 9.1%
same,"EC50 (nM), killing of target cells",[2],2.4 nM
same,"EC50 (nM), ADCC reporter cells",CD38 [3],3 nM
same,MFI at 0.03 nM,[4],2140 and 3880
same,MFI at 0.1 nM,[4],2880 and 2430
same,MFI at 0.3 nM,[4],3560 and 3190
same,MFI at 1 nM,[4],3130 and 2450
same,MFI at 3 nM,[4],3950 and 3970
same,MFI at 10 nM,[4],3320 and 9770
same,MFI at 30 nM,[4],7880 and 8230
same,MFI at 100 nM,[4],11500 and 10800
same,MFI at 300 nM,[4],7180 and 11100
same,MFI at 3000 nM,[4],3940 and 5160
same,IC50,CD38 [5],6 nM
B11,% dead cells at 1 nM,[2],14.3% and 14.7%
same,% dead cells at 3 nM,[2],14.7% and 15.7%
same,% dead cells at 10 nM,[2],14.1%
same,% dead cells at 30 nM,[2],16.3% and 15.3%
same,% dead cells at 100 nM,[2],17.1% and 18.1%
same,% dead cells at 300 nM,[2],19% and 20.6%
same,% dead cells at 3000 nM,[2],18.1% and 17.5%
same,"EC50 (nM), killing of target cells",[2],175 nM
same,"EC50 (nM), ADCC reporter cells",CD38 [3],12 nM
B12,Binding Assay (ELISA signal),CD38 [1],0.47
